Our source for the abundance fitness values is the Human Domainome abundance scans (Beltran et al. 2025).

± gives the uncertainty stated by the source.

B1: CD2-associated protein, residues 271 to 331; numbered along this chain, Q9Y5K6 (parent)
chain: KEYCRTLFAYEGTNEDELTFKEGEIIHLISKETGEAGWWRGELNGKEGVFPDNFAVQINEL

The variants in this series derive from B1. Briefly: abundance fitness (aPCA) (normalised: wild type 0, dead -1); higher = more abundant; growth selection in yeast, the domain comes from the species named. The conditions noted are these: Homo sapiens.
For the variant KEYCRTLFAYEGTNEDELTFKEGEIIHLISKEQGEAGWWRGELNGKEGVFPDNFAVQINEL, the abundance fitness was -0.451 ± 0.09.
KEYCRTLFAYEGTNEDELTFKEGEIIHLISKESGEAGWWRGELNGKEGVFPDNFAVQINEL: the abundance fitness is -0.097 ± 0.063.
In the case of KEYCRTLFAYEGTNEDELTFKEGEIIHLISKEYGEAGWWRGELNGKEGVFPDNFAVQINEL, the abundance fitness is -0.222 ± 0.1.
For KEYCRTLFAYEGTNEDELTFKEGEIIHLISKEVGEAGWWRGELNGKEGVFPDNFAVQINEL, the abundance fitness was -0.129 ± 0.064.
The value for KEYCRTLFAYEGTNEDELTFKEGEIIHLISKEWGEAGWWRGELNGKEGVFPDNFAVQINEL was -0.331 ± 0.057; that for KEYCRTLFAYEGTNEDELTFKEGEIIHLISKERGEAGWWRGELNGKEGVFPDNFAVQINEL was -0.473 ± 0.045; that for KEYCRTLFAYEGTNEDELTFKEGEIIHLISKETGSAGWWRGELNGKEGVFPDNFAVQINEL was 0.034 ± 0.07.
The value for KEYCRTLFAYEGTNEDELTFKEGEIIHLISKETGVAGWWRGELNGKEGVFPDNFAVQINEL was 0.032 ± 0.099.
Consider KEYCRTLFAYEGTNEDELTFKEGEIIHLISKETGWAGWWRGELNGKEGVFPDNFAVQINEL, for which the abundance fitness was -0.358 ± 0.11.
Take KEYCRTLFAYEGTNEDELTFKEGEIIHLISKETGYAGWWRGELNGKEGVFPDNFAVQINEL: the abundance fitness amounted to 0.055 ± 0.13.
For the variant KEYCRTLFAYEGTNEDELTFKEGEIIHLISKETGQAGWWRGELNGKEGVFPDNFAVQINEL, the abundance fitness amounted to 0.036 ± 0.067.
Regarding KEYCRTLFAYEGTNEDELTFKEGEIIHLISKETGGAGWWRGELNGKEGVFPDNFAVQINEL, the abundance fitness is -0.125 ± 0.13.
Take KEYCRTLFAYEGTNEDELTFKEGEIIHLISKETGHAGWWRGELNGKEGVFPDNFAVQINEL: the abundance fitness was -0.078 ± 0.094.
As for KEYCRTLFAYEGTNEDELTFKEGEIIHLISKETGAAGWWRGELNGKEGVFPDNFAVQINEL, the abundance fitness is 0.055 ± 0.1.
For KEYCRTLFAYEGTNEDELTFKEGEIIHLISKETGDAGWWRGELNGKEGVFPDNFAVQINEL, the abundance fitness was found to be 0.02 ± 0.12.
The same measure for KEYCRTLFAYEGTNEDELTFKEGEIIHLISKETGCAGWWRGELNGKEGVFPDNFAVQINEL: -0.027 ± 0.12; for KEYCRTLFAYEGTNEDELTFKEGEIIHLISKETGNAGWWRGELNGKEGVFPDNFAVQINEL: 0.002 ± 0.11; for KEYCRTLFAYEGTNEDELTFKEGEIIHLISKETGTAGWWRGELNGKEGVFPDNFAVQINEL: 0.132 ± 0.079.
In the case of KEYCRTLFAYEGTNEDELTFKEGEIIHLISKETGRAGWWRGELNGKEGVFPDNFAVQINEL, the abundance fitness was 0.034 ± 0.063.
For KEYCRTLFAYEGTNEDELTFKEGEIIHLISKETGMAGWWRGELNGKEGVFPDNFAVQINEL, the abundance fitness is -0.028 ± 0.097.
On to KEYCRTLFAYEGTNEDELTFKEGEIIHLISKETGPAGWWRGELNGKEGVFPDNFAVQINEL, for which the abundance fitness was -0.252 ± 0.067.
The value for KEYCRTLFAYEGTNEDELTFKEGEIIHLISKETGIAGWWRGELNGKEGVFPDNFAVQINEL was 0.119 ± 0.12; that for KEYCRTLFAYEGTNEDELTFKEGEIIHLISKETGLAGWWRGELNGKEGVFPDNFAVQINEL was -0.035 ± 0.052.
For KEYCRTLFAYEGTNEDELTFKEGEIIHLISKETGKAGWWRGELNGKEGVFPDNFAVQINEL, the abundance fitness came to 0.069 ± 0.08.
The same measure for KEYCRTLFAYEGTNEDELTFKEGEIIHLISKETGEEGWWRGELNGKEGVFPDNFAVQINEL: -0.13 ± 0.091; for KEYCRTLFAYEGTNEDELTFKEGEIIHLISKETGECGWWRGELNGKEGVFPDNFAVQINEL: -0.147 ± 0.11.
Take KEYCRTLFAYEGTNEDELTFKEGEIIHLISKETGEDGWWRGELNGKEGVFPDNFAVQINEL: the abundance fitness is -0.082 ± 0.11.
KEYCRTLFAYEGTNEDELTFKEGEIIHLISKETCEAGWWRGELNGKEGVFPDNFAVQINEL: the abundance fitness was -0.064 ± 0.18.
Turning to KEYCRTLFAYEGTNEDELTFKEGEIIHLISKETDEAGWWRGELNGKEGVFPDNFAVQINEL, the abundance fitness was -0.031 ± 0.17.
As to KEYCRTLFAYEGTNEDELTFKEGEIIHLISKETWEAGWWRGELNGKEGVFPDNFAVQINEL, the abundance fitness was -0.712 ± 0.15.
For the variant KEYCRTLFAYEGTNEDELTFKEGEIIHLISKETLEAGWWRGELNGKEGVFPDNFAVQINEL, the abundance fitness is -0.477 ± 0.084.
The value for KEYCRTLFAYEGTNEDELTFKEGEIIHLISKETMEAGWWRGELNGKEGVFPDNFAVQINEL was -0.423 ± 0.13; that for KEYCRTLFAYEGTNEDELTFKEGEIIHLISKETIEAGWWRGELNGKEGVFPDNFAVQINEL was -0.66 ± 0.22; that for KEYCRTLFAYEGTNEDELTFKEGEIIHLISKETEEAGWWRGELNGKEGVFPDNFAVQINEL was -0.155 ± 0.15.
The same measure for KEYCRTLFAYEGTNEDELTFKEGEIIHLISKETAEAGWWRGELNGKEGVFPDNFAVQINEL: -0.216 ± 0.094; for KEYCRTLFAYEGTNEDELTFKEGEIIHLISKETNEAGWWRGELNGKEGVFPDNFAVQINEL: -0.426 ± 0.42.
As to KEYCRTLFAYEGTNEDELTFKEGEIIHLISKETVEAGWWRGELNGKEGVFPDNFAVQINEL, the abundance fitness is -0.368 ± 0.078.
The value for KEYCRTLFAYEGTNEDELTFKEGEIIHLISKETPEAGWWRGELNGKEGVFPDNFAVQINEL was -0.181 ± 0.13; that for KEYCRTLFAYEGTNEDELTFKEGEIIHLISKETTEAGWWRGELNGKEGVFPDNFAVQINEL was -0.086 ± 0.095.
Take KEYCRTLFAYEGTNEDELTFKEGEIIHLISKETYEAGWWRGELNGKEGVFPDNFAVQINEL: the abundance fitness is -0.628 ± 0.19.
The same measure for KEYCRTLFAYEGTNEDELTFKEGEIIHLISKETSEAGWWRGELNGKEGVFPDNFAVQINEL: -0.014 ± 0.083; for KEYCRTLFAYEGTNEDELTFKEGEIIHLISKETREAGWWRGELNGKEGVFPDNFAVQINEL: -0.26 ± 0.078; for KEYCRTLFAYEGTNEDELTFKEGEIIHLISKETKEAGWWRGELNGKEGVFPDNFAVQINEL: 0.048 ± 0.098.
As to KEYCRTLFAYEGTNEDELTFKEGEIIHLISKETFEAGWWRGELNGKEGVFPDNFAVQINEL, the abundance fitness was -0.491 ± 0.13.
